One molecule from patent publication US8093068 (Janssen / Centocor, dated 2012) can be followed below.

The target in this test is T1, soluble human TLR3 extracellular domain (human, UniProt O15455 24-704).
T1 construct: extracellular domain; Coated on the ELISA plate; also called hTLR3; extracellular domain of human TLR3
Description: ELISA, soluble human TLR3 extracellular domain coated on plate, antibody titrated, anti-mouse IgG-HRP detection. As for the experimental part: All 16 mAbs were assessed for binding to the extracellular domain of human TLR3 using an ELISA format as compared to the parental murine mAb C1068. Briefly, soluble human TLR3 extracellular domain was coated into the wells of a 96 well plate and candidate mAbs were incubated at various concentrations (10-3 to 103 ng/ml) and bound antibody was detected with rabbit anti-mouse IgG-HRP for murine IgG1 isotypes (Zymed, South San Francisco, Calif.) or HRP-labeled anti-human IgG (Jackson 109-036-088) for human IgG4 isotypes. $EC50$ values were determined and the screening results are shown in FIG. 9 and Table 2 below.

B1: murine anti-TLR3 mAb C1068 (antibody, V domains shown)
VH: QVQLQQPGAELVQPGTSVRLSCKASGYIFTTYWIHWVKQRPGQGLEWIGEINPNNGRINYNEKFKTKATLTVDKSSSTAYMQLSSLTSEDSAVYYCTRVGVMITTFPYWGQGTLVTVSA
VL: DIQMTQSPASLSASVGETVTITCRASGNIHNYLAWYQQKQGKSPQLLVYNAKTLADGVPSRFSGSESGTQYSLKINSLQPEDFGSYYCQHFWSTPFTFGSGTKLELK
notes: The ELISA text implies a murine IgG1 isotype (detected with anti-mouse IgG-HRP for murine IgG1 isotypes); also called parental murine mAb C1068
Take B1: the EC50 – broadly, the concentration giving half of the maximal effect – came to 8 ng/mL.
